# According to patent publication US20040185525A1, “Process for producing peptide” (priority 2001, published 2004):
# Target: T1, GPR8 (Homo sapiens, UniProt P48146)
# T1 construct: expressed in transfected cells; host or cells: CHO cells (membrane fraction)
# Assay: GTPγS binding activity using a cell membrane fraction of CHO cells expressing GPR8
# Assay type: biochemical
# Conditions: fraction containing cell membrane of CHO cells expressing GPR8; compared with synthetic hGPR8L; process of Example 6 in WO 01/98494
# Excerpt: FIG. 4 is a graph showing the GTPγS binding activity of hGPR8L (SEQ ID NO: 44) of Example 1 to 3 toward CHO cells expressing GPR8. The horizontal axis indicates the concentration of hGPR8L while the vertical axis indicates the GTPyS binding activity. The solid points (-•-) indicate the results obtained for a synthetic hGPR8L (SEQ ID NO: 44) while the open points (-∘-) indicate the results obtained for hGPR8L (SEQ ID NO: 44) produced by the method of the present invention (tandem repeat technique).
# Using a fraction containing cell membrane of CHO cells expressing GPR8, the GTPγS binding activity of the hGPR8L obtained above was determined by the same process as described in Example 6 in WO 01/98494.
# T1 sequence (P48146 whole entry): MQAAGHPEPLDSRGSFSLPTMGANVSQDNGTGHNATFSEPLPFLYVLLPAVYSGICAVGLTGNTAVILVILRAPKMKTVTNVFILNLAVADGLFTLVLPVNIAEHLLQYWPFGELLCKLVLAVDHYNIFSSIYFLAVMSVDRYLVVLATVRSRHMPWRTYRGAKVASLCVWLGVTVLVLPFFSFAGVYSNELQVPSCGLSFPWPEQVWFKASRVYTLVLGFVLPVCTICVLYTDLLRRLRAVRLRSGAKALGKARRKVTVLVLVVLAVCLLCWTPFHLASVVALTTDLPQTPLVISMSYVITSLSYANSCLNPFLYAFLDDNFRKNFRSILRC
substance,measurement,value
"hGPR8L: 23-residue ligand polypeptide for human GPR8 (SEQ ID NO: 44), produced by the tandem repeat technique in E. coli (WYKHVASPRYHTVGRAAGLLMGL; Human)",GTPγS binding activity,equivalent to that of the artificially synthesized protein
